Test in all cases: SPOT array
Assay [1] addresses T1, Boi2 SH3 (BOI2_YEAST), P39969.
T1 chain: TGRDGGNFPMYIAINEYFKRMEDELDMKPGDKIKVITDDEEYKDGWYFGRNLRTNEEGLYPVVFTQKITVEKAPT

Assay [2] deals with T2, Yfr024 SH3 (LSB3_YEAST), P43603.
T2 chain: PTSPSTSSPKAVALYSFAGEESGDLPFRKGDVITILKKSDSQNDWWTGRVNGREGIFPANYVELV

Assay [3] deals with T3, Yhr016c SH3 (YSC84_YEAST), P32793.
T3 chain: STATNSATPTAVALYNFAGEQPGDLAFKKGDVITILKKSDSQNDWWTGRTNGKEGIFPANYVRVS

For assay [4], the target named is Sho1 SH3 (SHO1_YEAST), P40073.
The target of assay [5] is T4, Boi1 SH3 (BOI1_YEAST), P38041.
T4 chain: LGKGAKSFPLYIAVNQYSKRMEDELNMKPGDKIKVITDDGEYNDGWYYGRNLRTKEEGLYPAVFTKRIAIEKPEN

Assay [6] has as its target T5, Myo5 SH3 (MYO5_YEAST), Q04439.
T5 chain: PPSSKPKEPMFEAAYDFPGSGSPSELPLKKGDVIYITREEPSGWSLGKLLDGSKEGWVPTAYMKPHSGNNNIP

Assay [7] concerns the target T6, Rvs167 SH3 (RV167_YEAST), P39743.
T6 chain: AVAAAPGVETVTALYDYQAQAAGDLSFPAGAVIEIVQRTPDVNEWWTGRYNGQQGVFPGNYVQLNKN

Sequence of Sho1 SH3 (SHO1_YEAST), P40073 (P40073 295-366): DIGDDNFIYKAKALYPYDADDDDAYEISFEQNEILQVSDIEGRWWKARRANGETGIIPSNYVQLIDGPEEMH

Take SLISKRNPSYPYGI [YEL050C 18-31]: the normalised SPOT signal, Boehringer light units (BLU); mean over the file's lines of this peptide was 53.2 in assay [1]; 79.2 in assay [2]; 10.1 in assay [3]; 159 in assay [4]; 274 in assay [5]; 483 in assay [6]. Further, the normalised SPOT signal, Boehringer light units (BLU); mean over the file's lines of this peptide in assay [7] was 45.7.

For SMDSKRKPSPPSQR [YPL141C 758-771], the normalised SPOT signal, Boehringer light units (BLU); mean over the file's lines of this peptide came to 110 in assay [1]; 824 in assay [2]; 171 in assay [3]; 89.1 in assay [4]; 1110 in assay [5]; 510 in assay [6]. This molecule also returned a normalised SPOT signal, Boehringer light units (BLU); mean over the file's lines of this peptide in assay [7] of 371.

For SLTLKTLPRVPTDS [YDL197C 461-474], the normalised SPOT signal, Boehringer light units (BLU); mean over the file's lines of this peptide was found to be 28.1 in assay [1]; 188 in assay [2]; 28.2 in assay [3]; 31400 in assay [4]; 75.5 in assay [5]; 212 in assay [6]. Besides, the normalised SPOT signal, Boehringer light units (BLU); mean over the file's lines of this peptide in assay [7] amounted to 163.

SKNWKLPPRLPHRA [YIR018W 25-38]: the normalised SPOT signal, Boehringer light units (BLU); mean over the file's lines of this peptide turned out to be 29.8 in assay [1]; 39100 in assay [2]; 21900 in assay [3]; 4940 in assay [4]; 7830 in assay [5]; 5570 in assay [6]. The normalised SPOT signal, Boehringer light units (BLU); mean over the file's lines of this peptide in assay [7] turned out to be 10200.

As to SKRMKALPKGPAAL [YER164W 1316-1329], the normalised SPOT signal, Boehringer light units (BLU); mean over the file's lines of this peptide in assay [1] turned out to be 66.1; in assay [2], 1540; in assay [3], 114; in assay [4] it was 6310; in assay [5], 1730; in assay [6], 822. Also, the normalised SPOT signal, Boehringer light units (BLU); mean over the file's lines of this peptide in assay [7] was 204.

As for SLLAKYQPSLPLVE [YDL179W 224-237], the normalised SPOT signal, Boehringer light units (BLU); mean over the file's lines of this peptide in assay [1] amounted to 76.8; in assay [2], 57.4; in assay [3] it was 46.8; in assay [4], 58.4; in assay [5], 44.7; in assay [6] it was 162. Moreover, in assay [7], the normalised SPOT signal, Boehringer light units (BLU); mean over the file's lines of this peptide came to 68.6.

Take SNFKKRDPGLPDFQ [YPL083C 302-315]: the normalised SPOT signal, Boehringer light units (BLU); mean over the file's lines of this peptide is 6.1 in assay [1]; 212 in assay [2]; 49.4 in assay [3]; 36.9 in assay [4]; 238 in assay [5]; 161 in assay [6]. Also, the normalised SPOT signal, Boehringer light units (BLU); mean over the file's lines of this peptide in assay [7] is 89.5.

As to SKIPKSIPIIPYVL [YLR328W 26-39], the normalised SPOT signal, Boehringer light units (BLU); mean over the file's lines of this peptide in assay [1] was 25.9; in assay [2], 42.7; in assay [3], 33.4; in assay [4], 76.7; in assay [5], 151; in assay [6], 243. Also, the normalised SPOT signal, Boehringer light units (BLU); mean over the file's lines of this peptide in assay [7] amounted to 73.2.

With SLIPKIEPAEPTYS [YNL224C 454-467], the normalised SPOT signal, Boehringer light units (BLU); mean over the file's lines of this peptide in assay [1] was found to be 25.6; in assay [2] it was 1; in assay [3] it was 8.7; in assay [4] it was 33.4; in assay [5], 170; in assay [6] it was 85.4. For the same molecule, in assay [7], the normalised SPOT signal, Boehringer light units (BLU); mean over the file's lines of this peptide came to 41.8.

With SMAMRPIPPLPTES [YNL152W 155-168], the normalised SPOT signal, Boehringer light units (BLU); mean over the file's lines of this peptide in assay [1] stood at 49; in assay [2], 50600; in assay [3], 46600; in assay [4], 242; in assay [5], 37; in assay [6], 1330. In addition, in assay [7], the normalised SPOT signal, Boehringer light units (BLU); mean over the file's lines of this peptide stood at 32500.

As for SKYAKLDPSTPVSL [YNL239W 287-300], the normalised SPOT signal, Boehringer light units (BLU); mean over the file's lines of this peptide in assay [1] is 39.1; in assay [2], 26.4; in assay [3] it was 48.5; in assay [4], 32.6; in assay [5] it was 101; in assay [6] it was 457. Also, the normalised SPOT signal, Boehringer light units (BLU); mean over the file's lines of this peptide in assay [7] amounted to 42.2.

In the case of SKVNKVAPDHPFIQ [YDR345C 274-287], the normalised SPOT signal, Boehringer light units (BLU); mean over the file's lines of this peptide stood at 9.5 in assay [1]; 13.5 in assay [2]; 7.1 in assay [3]; 0 in assay [4]; 122 in assay [5]; 72.1 in assay [6]. Further, the normalised SPOT signal, Boehringer light units (BLU); mean over the file's lines of this peptide in assay [7] amounted to 12.9.

On to SLGERFMPMAPEVY [YBR017C 618-631], for which the normalised SPOT signal, Boehringer light units (BLU); mean over the file's lines of this peptide in assay [1] is 51.3; in assay [2], 15.8; in assay [3], 7.3; in assay [4] it was 3.7; in assay [5], 49.7; in assay [6], 140. The molecule also had a normalised SPOT signal, Boehringer light units (BLU); mean over the file's lines of this peptide in assay [7] of 32.8.

As to SLKNRDGPITPSTI [YPR128C 112-125], the normalised SPOT signal, Boehringer light units (BLU); mean over the file's lines of this peptide in assay [1] amounted to 67.9; in assay [2], 161; in assay [3], 14.1; in assay [4] it was 25.7; in assay [5], 60.2; in assay [6], 215. For the same molecule, in assay [7], the normalised SPOT signal, Boehringer light units (BLU); mean over the file's lines of this peptide came out at 232.

The values above are taken from article PMC314469, “Protein Interaction Networks by Proteome Peptide Scanning” (PLoS Biology, 2004).
